Measurements published in US20110318339A1 (FABRUS, published 2011).

Legend:
[1] = molecular target: T1, recombinant human DLL4 (Cat# 1506-D4/CF, R&D Systems) (human, UniProt Q9NR61 27-529); test: ELISA, DLL4 coated, Fab 50 nM
T1 construct: Bought protein; also called hDLL4; rHuman DLL4
Experimental: (§1) The plate was blocked by adding 1% BSA in Tris-buffered Saline Tween (TBST) and incubating for 1 hour at room temperature followed by washing 2 times with 150 μl TBST. A Fab antibody was serially diluted in 1% BSA in PBS. A 50 μl aliquot of each serial dilution was added, in triplicate, to each well and the plate was incubated for 1 hour at room temperature followed by washing 2 times with TBST. 50 μl of either goat anti-human kappa HRP conjugated secondary antibody (Cat # A7164-1 mL, Sigma-Aldrich) or goat anti-human lambda HRP conjugated secondary antibody (Cat # L1645-1 ml, Sigma-Aldrich), diluted 1:1000 in 1% BSA in PBS, was added to each well and the plate was incubated for 30 minutes at room temperature followed by washing 3 times with 200 μl TBST. Finally, 50 μl TMB one-component reagent (Cat # TMBW-1000-01, BioFax) was added and allowed to develop for 2 minutes at room temperature. The reaction was immediately halted by the addition of 50 μl 0.5M H₂SO₄ and the absorbance at 450 nm was measured using an ELISA plate reader.

[2] = molecular target: T1, recombinant human DLL4 (Cat# …); test: ELISA, DLL4 coated, Fab 100 nM
[3] = molecular target: T1, recombinant human DLL4 (Cat# …); test: ELISA, DLL4 coated, Fab 75 nM
[4] = molecular target: T1, recombinant human DLL4 (Cat# …); test: ELISA, DLL4 coated, Fab 1.3 nM
Experimental: as §1

[5] = molecular target: T1, recombinant human DLL4 (Cat# …); test: ELISA, DLL4 coated, Fab 20 nM
Experimental: as §1

[6] = molecular target: T1, recombinant human DLL4 (Cat# …); test: ELISA, DLL4 coated, Fab 10 nM
Experimental: as §1

[7] = molecular target: T1, recombinant human DLL4 (Cat# …); test: ELISA, DLL4 coated, Fab 2.5 nM
Experimental: as §1

[8] = molecular target: T1, recombinant human DLL4 (Cat# …); test: ELISA, DLL4 coated, Fab 0.63 nM
Experimental: as §1

[9] = molecular target: T1, recombinant human DLL4 (Cat# …); test: ELISA, DLL4 coated, Fab 0.31 nM
Experimental: as §1

[10] = molecular target: T1, recombinant human DLL4 (Cat# …); test: ELISA, DLL4 coated, Fab 5 nM
Experimental: as §1

[11] = molecular target: T1, recombinant human DLL4 (Cat# …); test: ELISA, DLL4 coated, Fab 0.16 nM
Experimental: as §1

[12] = molecular target: T1, recombinant human DLL4 (Cat# …); test: ELISA, DLL4 coated, Fab 50 nM; remark: listed apart in the source
Experimental: as §1

[13] = molecular target: T1, recombinant human DLL4 (Cat# …); test: ELISA, DLL4 coated, Fab 6.25 nM
Experimental: as §1

[14] = molecular target: T1, recombinant human DLL4 (Cat# …); test: ELISA, DLL4 coated, Fab 25 nM
Experimental: as §1

[15] = molecular target: T1, recombinant human DLL4 (Cat# …); test: ELISA, DLL4 coated, Fab 100 nM; remark: listed apart in the source
Experimental: as §1

[16] = molecular target: T1, recombinant human DLL4 (Cat# …); test: ELISA, DLL4 coated, Fab 3.125 nM
Experimental: as §1

[17] = molecular target: T1, recombinant human DLL4 (Cat# …); test: ELISA, DLL4 coated, Fab 12.5 nM
Experimental: as §1

B1: Fab VH1-46_IGHD6-6*01_IGHJ1*01 S102A/S103P/S104F/H111F G56A & L6_IGKJ1*01 (Fab, V domains shown)
VH: QVQLVQSGAEVKKPGASVKVSCKASGYTFTSYYMHWVRQAPGQGLEWMGIINPSGASTSYAQKFQGRVTMTRDTSTSTVYMELSSLRSEDTAVYYCAREEYAPFSAEYFQFWGQGTLVTVSS
VL: not shown
notes: Fab made in E. coli: VH on CH1 with His6 and Flag tags (Plasmid A), VL on kappa CL (Plasmid C); also called H: APFF G56A & L: wt
ELISA absorbance at 450 nm [1]: 0.301 A450
ELISA absorbance at 450 nm [2]: 0.338 A450
ELISA absorbance at 450 nm [3]: 0.399 A450

B2: Fab VH1-46_IGHD6-6*01_IGHJ1*01 S102A/S103P/S104F/H111F N52L/S54T/G56H & L6_IGKJ1*01 (Fab, V domains shown)
VH: QVQLVQSGAEVKKPGASVKVSCKASGYTFTSYYMHWVRQAPGQGLEWMGIILPTGHSTSYAQKFQGRVTMTRDTSTSTVYMELSSLRSEDTAVYYCAREEYAPFSAEYFQFWGQGTLVTVSS
VL: not shown
notes: Fab made in E. coli: VH on CH1 with His6 and Flag tags (Plasmid A), VL on kappa CL (Plasmid C); also called H: APFF LTH & L: wt
ELISA absorbance at 450 nm [4]: 0.653 A450
ELISA absorbance at 450 nm [5]: 2.4 A450
ELISA absorbance at 450 nm [6]: 2.35 A450
ELISA absorbance at 450 nm [7]: 2.15 A450
ELISA absorbance at 450 nm [8]: 1.37 A450
ELISA absorbance at 450 nm [9]: 2.4 A450
ELISA absorbance at 450 nm [10]: 2.48 A450
ELISA absorbance at 450 nm [11]: 2.35 A450

B3: Fab VH1-46_IGHD6-6*01_IGHJ1*01 S102A/S103P/S104F/H111F & L6_IGKJ1*01 S28N/S30D/S31H S52L (Fab, V domains shown)
VH: QVQLVQSGAEVKKPGASVKVSCKASGYTFTSYYMHWVRQAPGQGLEWMGIINPSGGSTSYAQKFQGRVTMTRDTSTSTVYMELSSLRSEDTAVYYCAREEYAPFSAEYFQFWGQGTLVTVSS
VL: EIVLTQSPATLSLSPGERATLSCRASQNVDHYLAWYQQKPGQAPRLLIYDALNRATGIPARFSGSGSGTDFTLTISSLEPEDFAVYYCQQRSNWPPWTFGQGTKVEIKR
notes: Fab made in E. coli: VH on CH1 with His6 and Flag tags (Plasmid A), VL on kappa CL (Plasmid C); also called H: APFF & L: NDH S52L
ELISA absorbance at 450 nm [12]: 0.546 A450
ELISA absorbance at 450 nm [13]: 0.142 A450
ELISA absorbance at 450 nm [14]: 0.335 A450
ELISA absorbance at 450 nm [15]: 0.791 A450
ELISA absorbance at 450 nm [16]: 0.095 A450
ELISA absorbance at 450 nm [17]: 0.215 A450

B4: Fab VH1-46_IGHD6-6*01_IGHJ1*01 S102A/S103P/S104F/H111F & L6_IGKJ1*01 S28N/S30D/S31H A55G (Fab, V domains shown)
VH: QVQLVQSGAEVKKPGASVKVSCKASGYTFTSYYMHWVRQAPGQGLEWMGIINPSGGSTSYAQKFQGRVTMTRDTSTSTVYMELSSLRSEDTAVYYCAREEYAPFSAEYFQFWGQGTLVTVSS
VL: EIVLTQSPATLSLSPGERATLSCRASQNVDHYLAWYQQKPGQAPRLLIYDASNRGTGIPARFSGSGSGTDFTLTISSLEPEDFAVYYCQQRSNWPPWTFGQGTKVEIKR
notes: Fab made in E. coli: VH on CH1 with His6 and Flag tags (Plasmid A), VL on kappa CL (Plasmid C); also called H: APFF & L: NDH A55G
ELISA absorbance at 450 nm [12]: 0.51 A450
ELISA absorbance at 450 nm [13]: 0.125 A450
ELISA absorbance at 450 nm [14]: 0.316 A450
ELISA absorbance at 450 nm [15]: 0.814 A450
ELISA absorbance at 450 nm [16]: 0.093 A450
ELISA absorbance at 450 nm [17]: 0.198 A450

B5: Fab VH1-46_IGHD6-6*01_IGHJ1*01 S102A/S103P/S104F/H111F & L6_IGKJ1*01 S28N/S30D/S31H A55S (Fab, V domains shown)
VH: QVQLVQSGAEVKKPGASVKVSCKASGYTFTSYYMHWVRQAPGQGLEWMGIINPSGGSTSYAQKFQGRVTMTRDTSTSTVYMELSSLRSEDTAVYYCAREEYAPFSAEYFQFWGQGTLVTVSS
VL: EIVLTQSPATLSLSPGERATLSCRASQNVDHYLAWYQQKPGQAPRLLIYDASNRSTGIPARFSGSGSGTDFTLTISSLEPEDFAVYYCQQRSNWPPWTFGQGTKVEIKR
notes: Fab made in E. coli: VH on CH1 with His6 and Flag tags (Plasmid A), VL on kappa CL (Plasmid C); also called H: APFF & L: NDH A55S
ELISA absorbance at 450 nm [12]: 0.588 A450
ELISA absorbance at 450 nm [13]: 0.154 A450
ELISA absorbance at 450 nm [14]: 0.407 A450
ELISA absorbance at 450 nm [15]: 0.858 A450
ELISA absorbance at 450 nm [16]: 0.108 A450
ELISA absorbance at 450 nm [17]: 0.258 A450

B6: Fab VH1-46_IGHD6-6*01_IGHJ1*01 S102A/S103P/S104F/H111F I51T/N52L/P53A/S54T/G56H & L6_IGKJ1*01 (Fab, V domains shown)
VH: QVQLVQSGAEVKKPGASVKVSCKASGYTFTSYYMHWVRQAPGQGLEWMGITLATGHSTSYAQKFQGRVTMTRDTSTSTVYMELSSLRSEDTAVYYCAREEYAPFSAEYFQFWGQGTLVTVSS
VL: not shown
notes: Fab made in E. coli: VH on CH1 with His6 and Flag tags (Plasmid A), VL on kappa CL (Plasmid C); also called H: APFF TLATH & L: wt
ELISA absorbance at 450 nm [4]: 0.078 A450
ELISA absorbance at 450 nm [5]: 1.11 A450
ELISA absorbance at 450 nm [6]: 0.875 A450
ELISA absorbance at 450 nm [7]: 0.592 A450
ELISA absorbance at 450 nm [8]: 0.227 A450
ELISA absorbance at 450 nm [9]: 1.11 A450
ELISA absorbance at 450 nm [10]: 1.27 A450
ELISA absorbance at 450 nm [11]: 0.875 A450
